We go through 41 sequences from the nanobody polyreactivity screen of Harvey et al. (2022).

The series can be described thus: yeast display, Sf9 membrane polyspecificity reagent, FACS + sequencing; frameworks hold sequencing errors. An outline of the steps: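 Nanobodies from a synthetic yeast display library (Saccharomyces cerevisiae BJ5465), induced 36–48 hours with galactose, were stained 1 hour at 4 °C with 10% biotinylated, detergent-solubilized Sf9 membrane reagent, enriched on streptavidin microbeads, then FACS-sorted. Anti-HA (expression) and streptavidin (reagent binding) fluorescence set low and high (top ~1%) gates. Polyreactivity labels come from the gate of origin. Genes were colony-PCR amplified, MiSeq 2 × 250 sequenced and filtered by CDR length.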
Turning to “QVQLVESRGGLVQAGGSLRLSCAASGITFYTYTMGWYRQAPGKERELVAVISASGARTYYADSVKGRFTISRDNAKNTVYLQMNSLKPEDTAVYYFAARSFYISPWRFDYWGQGTQVTVSS”, the “polyreactivity (PSR sort gate)” value is given as “high polyreactivity”.

For the sequence “QVQLVESRGGLVQAGGSLRLSCAASGITSPYAMGWYRQAPGKERELVAAISWSGSSTYYADSVKGRFTISRDNAKNTVYLQMNSLKPQDTAVYYCNTVGTRQPMDYWGQGTQVTVSS”, the “polyreactivity (PSR sort gate)” value is listed as “high polyreactivity”.

Take “QVQLVESRGGLVQAGGSLRLSCAASGLIFWFNTMGWYRQAPGTERELVAAITSGGGSTYYADSVKGRFTISRDIAKNTVYLQKNSLKPEDTAVYYCNAGAGRWRARQWHDYWGQGTQVTVSS”: the “polyreactivity (PSR sort gate)” value is reported as “low polyreactivity”.

As for “QVQLVESRGGLVQAGGSLRLSCAASGRIFDVYAMVWYRQAPGKERELVAAITWSGTSTYYADSVKGRFTISRDNAKNTVYVQMNSLKPEDTAVYYCAAEVAYTDTEYFWYYYWGQGTQVTVSS”, the “polyreactivity (PSR sort gate)” value is “high polyreactivity”.

For “QVQLVESRGGLVQAGGSLRLSCAASGRIFNVYAMGWYRQAPGKERELVAGISGSGGRTYYADSVKGRFTISRDNAKNTVYLQMNSLKPEDTAVYYCNTVRHYSSWGQGTQVTVSS”, the “polyreactivity (PSR sort gate)” value was “high polyreactivity”.

For the sequence “QVQLVESRGGLVQAGGSLRLSCAASGRIFYVNAMGGYRQAPGKERELVAAIDVSGGRTYYADSVKGRFTISRDNAKNTVYLQMNSLKPEDTAVYYCAALKYRWTPYYPYDYWGQGTQVTVSS”, the “polyreactivity (PSR sort gate)” value is “low polyreactivity”.

As to “QVQLVESRGGLVQAGGSLRLSCAASGRTFAVYALGWYRQAPGKEWELVAAITLGASRTYYADSVKGRFTISRDNAKNTVYLQMNSLKPEDTAVYSCNAVGRRNVDSSLNDYWGQGTQVTVSS”, the “polyreactivity (PSR sort gate)” value is reported as “low polyreactivity”.

Regarding “QVQLVESRGGLVQAGGSLRLSCAASGRTFDGYVMGWYRQAPGKERELVAAISWGGSYTYYADSVKGRFTISRDNAKNTVYLQMNSLKPEDTAVYYCAKDTVPNVRDYWGQGTQVTVSS”, the “polyreactivity (PSR sort gate)” value is listed as “low polyreactivity”.

With “QVQLVESRGGLVQAGGSLRLSCAASGRTFGIYTMGWYRQAPGKERKLVAAISKRGSSTYYADSVKGRFTISRDNANNTVYLQMNSLKPEDTAVYYCAATRRYRYNWGQGSQVTVSS”, the “polyreactivity (PSR sort gate)” value is reported as “high polyreactivity”.

As for “QVQLVESRGGLVQAGGSLRLSCAASGRTFGRNTMGWYRQAPGKERELVAAISISGTSTYYADSVKGRFTISRDNAKNTVSLQMNSLKPEDTAVYDCAARYIRGSYGMGYWGQGTQVTVSS”, the “polyreactivity (PSR sort gate)” value is listed as “high polyreactivity”.

Consider “QVQLVESRGGLVQAGGSLRLSCAASGSIFYRNVMGWYTQAPRKEREWVAAISGRGGSTYYADSVKGRFTISRDNAKNTVYLQFTSLKPEDTAVYYCATELTYRHGYWGQGTQVTVSS”, for which the “polyreactivity (PSR sort gate)” value is reported as “high polyreactivity”.

As for “QVQLVESRGGLVQAGGSLRLSCAASGSTFGQYPMGSYRQEPGKERELVATITSPGSTNYADSVKGRFTISRDNAKNTVYFQMNSLKPEDSAVYYCNAVTGYWDGTEARQPYDYWGQGTQVTVSS”, the “polyreactivity (PSR sort gate)” value was “low polyreactivity”.

As to “QVQLVESRGGLVQAGGSLRLSCAASGSTFRTNTMGWSRQAPGKEREVVADISWSGGSTDYADSVKGRFTISRDNAKNTVYLQMNSLKPEDTAVYFCAKDGAFWTYYSWYDYWGQGTQVTVSS”, the “polyreactivity (PSR sort gate)” value was “low polyreactivity”.

Turning to “QVQLVESRGGLVQAGGSLRLSCAASGSTFTYNAMGWYRQAPGKERELVASINSGGSTYYADSVKGRFTISRDNAKNNFYLQMNSLKPEDTAVYYCAKDLHLDSYASDYWGQGTQVTVSS”, the “polyreactivity (PSR sort gate)” value is given as “low polyreactivity”.

Consider “QVQLVESRGGLVQAGGSLRLSCAASGSTRGSNAMGRYRQAPGKEMELVAAITWSGGTTYYADSVKGRFTISRDNAKNTVYLQMHSLKPEDTSVYYCATGQSVIYRYEYWGQGTQVTVSS”, for which the “polyreactivity (PSR sort gate)” value is recorded as “low polyreactivity”.

Regarding “QVQLVESRGGLVQAGGSLRLSCAATGSIFNNYDMGWYRQAPGKERELVADISRGGDTNYADSVKGRFTISRDNAKYTVYLQMTSLNPVDTAVYYCNATYWILDSPWRRETFDYWRQGTQVTVSS”, the “polyreactivity (PSR sort gate)” value is recorded as “low polyreactivity”.

For “QVQLVESRGGLVQAGGSLRLSCPASGFTFVNYAMGWYRQAPGKERELVAAIRRSGSRTYYADSVKGRFTISRDNAKNTVYLQMNSLKPEVTAVYYCNAPVVYFWPLNFDYWGQGTQVTVSS”, the “polyreactivity (PSR sort gate)” value is on record as “low polyreactivity”.

In the case of “QVQLVESRGGLVQAGGSLRLSCPDSGSNLLSYAMGWYRQAPGKERELVAAITTRDGSTYYADSVKGRFTISRDNAKYTVYLQMTSLKPEDTAVYYCNVDARSSYDYWGQGTQVTVSS”, the “polyreactivity (PSR sort gate)” value is reported as “low polyreactivity”.

Consider “QVQLVESRGGLVQAGGSLRLSFAASGIIFADYAMGWYRQAPGKERELVAAISSGDSTYYADSVKGRFTISRDNAKNTVYLQMNSLKPEDTAVYYCAARLYRNKYRIAKMNYWGQGTQVTVSS”, for which the “polyreactivity (PSR sort gate)” value is recorded as “high polyreactivity”.

Regarding “QVQLVESRGGLVQAGGSLRLSSAASGFTFHGNAMRWYRQAPGKERQLVAGISSSGASTYYADSVKGRFTISRDNAKNTVYLQMNILKPEDTAVYYCAVRYYGRYLRYNYCGQGTQVTVSS”, the “polyreactivity (PSR sort gate)” value was “high polyreactivity”.

On to “QVQLVESRGGLVQAGGSLRLSSAASGFTFRYYLMGWYRQAPRKERELVAAITWSGGTTNYADSVKGRFTISRDNAKNSVYLQMNSLKPEDTAVYYCNAARSRGANRVPPYRLYYWGQGTQVTVSS”, for which the “polyreactivity (PSR sort gate)” value was “low polyreactivity”.

For the sequence “QVQLVESRGGLVQAGGSLRLSSAASGITFGRNPMGWYRQAPGKERELVAAIESGGNTYADSVKGRFTISRDNAKNTVYLQMNSLKPEDTAVYYCAVDGGEFSSYGYWGQGTQVTVSS”, the “polyreactivity (PSR sort gate)” value was “low polyreactivity”.

On to “QVQLVESRGGLVQAGGSLRLTCAASGSTFAPNTMGWYRQAPGQERELVARITSSDGSTTYADSVKGRFTISRDNAKTTVYLQMNSLKPEHTAVYYCAADYGRRWGYDYWGQGTQVTVSS”, for which the “polyreactivity (PSR sort gate)” value is reported as “low polyreactivity”.

Consider “QVQLVESRGGLVQAGRSLRLSCAASGRTFHRNTLGRYRQAPGKERELVAAITGDGRTNYADSVKGRFTISRDNAKNTVYLLMNSLKPEDTAGYYCAAQYYYSEAGRDYWGQGTQVTVSS”, for which the “polyreactivity (PSR sort gate)” value was “low polyreactivity”.

“QVQLVESRGRLLQAGGSLRLSCAASGRISHINAMGCSIQAPGKERELVAGIRGRGGSTYYADSVKGRFTISRDNAKNSVYLQMNSLKPEDTEVYYCAARGWELIRTDPFDYWGQGSQVTVSS”: the “polyreactivity (PSR sort gate)” value is “high polyreactivity”.

On to “QVQLVESRGVLDQARGSLRLSCAATGSIFKPYAMGWYRQEPGKEMELVAAISGIGGSTYYADSVKGRFTIARDNAKNTVYLQMNSLKPEVTAVYYCAALTGFYNLRPYGYWGQGTQVTVSS”, for which the “polyreactivity (PSR sort gate)” value is “high polyreactivity”.

For “QVQLVESRGVLVQAGGSIRLSCAASGFSIDYYAMGWYRPAPGKERELVAAITTSGGRTYYADSVKGRFTIARDYAKNTVYLQMNSLKPEDTAVYYCAVVTWIYGTRFNYWGQGTQVTVSS”, the “polyreactivity (PSR sort gate)” value was “high polyreactivity”.

Regarding “QVQLVESRVGLVKAGGSLRLSCAASGITLYWYAMGWYRQAPGKESELVAAISRRGGTTYYSDSVKGRFTISRDNAKNTVYLQMNILKPEDTAVYYCAKAPDTQTSWSRQEGNYWGQGSQVTVSS”, the “polyreactivity (PSR sort gate)” value was “low polyreactivity”.

As to “QVQLVESSGGLVQAGGSLRLSCAASGSIFLYNAMGWYRKAPGTEREMVAAISKSGGSTYYADSVKGRFTISRDNAKYTVYLQMNSLKPEDTAVYYCAAGYGRRIRYGCEYDYWGQGTQVTVSS”, the “polyreactivity (PSR sort gate)” value is “low polyreactivity”.

In the case of “QVQLVESVGALVQARGSLRLSCAASGFTFRPYAMGWYRQAPGKERELVAAITRSGGSTYYADSVKGRFTISRDTAKNTVYLQMNSLKPEDTAVYYCAARFARSEYDYWGQGTQVTVSS”, the “polyreactivity (PSR sort gate)” value was “high polyreactivity”.

In the case of “QVQLVESVGCLVQAGGSLRLSCAASGRTVVYGYAMGWYRQDPGKERELVAAITSGGSTNYADSVKGRFTISRDNAKNTVYLQMNSLNPEDSAVYYCNAGTVLISTYDYWGQGTQVTVSS”, the “polyreactivity (PSR sort gate)” value is recorded as “high polyreactivity”.

With “QVQLVESVGGFVQAGGSLRLSCAASGRIFGTYAMGWYRQAPGKERELVAAITRGGTTYYADSVKRRFTISRDNAKNTVYLQMNSLKPEDTAVYDCATGPAIRYDYWGQGTQVTVSS”, the “polyreactivity (PSR sort gate)” value is “low polyreactivity”.

On to “QVQLVESVGGIVQAGGSLRLSCDASGRTFGRSAMGSYRQAPGKERELVAGISRAGDSTHYAESVKGRCTISRDNAKNTVYLQMNSLKPEDTAVYYCNKETPTIGARKYEYWGQGTQVTVSS”, for which the “polyreactivity (PSR sort gate)” value is listed as “low polyreactivity”.

On to “QVQLVESVGGIVQAGGSLRLTCAASGSIIKRNAMGWYRQAPGKERELVATISSGDGSTRYADSVKGRFTISRDNAKNTVYLQMNSLKPEDTAVYYCARDFTYTYYRWKTPYRIGHDYWGQGTQVTVSS”, for which the “polyreactivity (PSR sort gate)” value is “low polyreactivity”.

Consider “QVQLVESVGGLDQAGGSLRLSCAASGFILSWYAMGWYRQAPGKERELVAGISRRGGSTYYADSVTGRFTISRDNAKNTVYLQMNSLKPEDTAVYYCNALYDEWSVSTGDYWGQGTQVTVSS”, for which the “polyreactivity (PSR sort gate)” value is recorded as “high polyreactivity”.

On to “QVQLVESVGGLDQAGGSLRLSCAASVFTFNIYVMGWYRQAPGKERELVAAISTSTGSTYYADSVKGRFTISRDNAKNTVYLQMNSLKPQDTAVYYCNADDYDLRFDYWGQGTQVTVSS”, for which the “polyreactivity (PSR sort gate)” value is “low polyreactivity”.

Regarding “QVQLVESVGGLDQAGGTLRLSCAASALIFAYYAMGGYRQAPGKERELVAAITSSGTSTYYADSVKGRFTISRDNAKNTVYLQMNSLTPEDTAVYYCAASDRRLTGVGADEYWGQGTQVTVSS”, the “polyreactivity (PSR sort gate)” value is reported as “high polyreactivity”.

Turning to “QVQLVESVGGLGQAGGSLRLSCAASGSIFVLNARGWSRQAPGKERELVAGITYSGGSTYYADSVKGRFTISRDNATNTVYLQMNSLKPEDTAVYSCAAPVRRYPYPGRFYYWGQGTQVTVSS”, the “polyreactivity (PSR sort gate)” value is reported as “low polyreactivity”.

Consider “QVQLVESVGGLGQARVRLRLSCAASGITFYRYAMGWYRQAPGKERELVAAITSRGTSTYYADSVKGRFTISRDNAKNTVYLQMNSLKPEDTAVYYCAAVLFVGDGGYDYWGQGTQVTVSS”, for which the “polyreactivity (PSR sort gate)” value is “high polyreactivity”.

As to “QVQLVESVGGLVLAGASLRLSCAASGSTYAPNAMGWYRQAPGKERELVAVITSGDSTYYAVSVKGRFTISRDNAKNTVYLQMNSLKPEDTAVYYCASETYGTPGYYYWGQGTQVTVSS”, the “polyreactivity (PSR sort gate)” value was “low polyreactivity”.

With “QVQLVESVGGLVQAGCILRLSCAPSGRIFGVNAMGWYRQAPGKVRELVAAIDWSDGSTYYADSVKGRFTISRDNAKNTVYLQMNSLKPEDTAVYYCAALPSYLAAQYGDDYWGQGTQVTVSS”, the “polyreactivity (PSR sort gate)” value is “low polyreactivity”.
